This is an account of results in patent US20080267950A1 (BOARD OF TRUSTEES OF THE UNIVERSITY OF ARKANSAS, published 2008).

For assay [1], the target named is T1, LRP6 in C2C12 cell lysate (mouse, UniProt O88572 20-1613).
T1 construct: also called LDL receptor-related protein 6
Kind of assay: co-immunoprecipitation: BMPR immunoprecipitated from C2C12 lysate, blotted with anti-LRP6.

Assay [2] deals with T2, LRP5 in C2C12 cell lysate (mouse, UniProt Q91VN0 31-1614).
T2 construct: also called LDL receptor-related protein 5
T2 sequence (Q91VN0 31-1614 limits assumed): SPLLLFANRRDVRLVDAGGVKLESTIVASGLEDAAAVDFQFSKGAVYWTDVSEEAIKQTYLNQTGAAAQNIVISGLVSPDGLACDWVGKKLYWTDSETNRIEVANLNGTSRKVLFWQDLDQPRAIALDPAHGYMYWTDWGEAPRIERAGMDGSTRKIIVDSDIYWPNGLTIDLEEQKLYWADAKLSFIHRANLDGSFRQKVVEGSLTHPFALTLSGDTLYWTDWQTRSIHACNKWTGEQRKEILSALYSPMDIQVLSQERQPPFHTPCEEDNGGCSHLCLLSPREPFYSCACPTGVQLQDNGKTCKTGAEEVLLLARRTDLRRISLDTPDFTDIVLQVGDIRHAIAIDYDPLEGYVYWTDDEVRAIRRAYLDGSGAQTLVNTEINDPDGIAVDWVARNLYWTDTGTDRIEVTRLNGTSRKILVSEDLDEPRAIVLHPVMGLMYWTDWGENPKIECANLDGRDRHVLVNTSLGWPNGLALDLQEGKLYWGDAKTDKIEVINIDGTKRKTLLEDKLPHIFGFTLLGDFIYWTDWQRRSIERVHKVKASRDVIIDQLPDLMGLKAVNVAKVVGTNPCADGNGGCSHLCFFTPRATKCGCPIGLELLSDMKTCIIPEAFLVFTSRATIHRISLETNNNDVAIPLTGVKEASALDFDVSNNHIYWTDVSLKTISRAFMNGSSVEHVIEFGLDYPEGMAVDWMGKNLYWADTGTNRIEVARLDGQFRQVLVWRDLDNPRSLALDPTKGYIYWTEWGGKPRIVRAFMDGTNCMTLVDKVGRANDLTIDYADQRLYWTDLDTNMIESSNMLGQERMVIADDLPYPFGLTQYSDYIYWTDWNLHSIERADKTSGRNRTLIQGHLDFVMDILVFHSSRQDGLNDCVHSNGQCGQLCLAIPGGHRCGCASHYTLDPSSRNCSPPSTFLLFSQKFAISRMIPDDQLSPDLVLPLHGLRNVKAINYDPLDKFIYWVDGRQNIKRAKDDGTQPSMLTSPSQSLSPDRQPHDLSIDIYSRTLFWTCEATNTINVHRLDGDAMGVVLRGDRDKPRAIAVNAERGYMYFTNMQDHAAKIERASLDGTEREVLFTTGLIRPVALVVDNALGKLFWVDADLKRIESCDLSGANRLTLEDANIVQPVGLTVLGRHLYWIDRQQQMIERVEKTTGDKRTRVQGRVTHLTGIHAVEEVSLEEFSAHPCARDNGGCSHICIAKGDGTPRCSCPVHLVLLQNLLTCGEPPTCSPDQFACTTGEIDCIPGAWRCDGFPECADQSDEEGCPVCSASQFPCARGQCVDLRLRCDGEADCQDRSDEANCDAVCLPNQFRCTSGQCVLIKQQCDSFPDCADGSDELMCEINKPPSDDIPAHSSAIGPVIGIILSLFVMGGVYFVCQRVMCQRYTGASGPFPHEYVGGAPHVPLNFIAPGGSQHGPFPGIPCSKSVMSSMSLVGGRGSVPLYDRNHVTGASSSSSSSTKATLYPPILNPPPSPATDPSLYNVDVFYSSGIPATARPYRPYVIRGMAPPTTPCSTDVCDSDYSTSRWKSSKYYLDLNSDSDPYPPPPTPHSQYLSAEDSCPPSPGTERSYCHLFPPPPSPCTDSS
Nature of the assay: co-immunoprecipitation: BMPR immunoprecipitated from C2C12 lysate, blotted with anti-LRP5.

T1 sequence (O88572 20-1613 limits assumed): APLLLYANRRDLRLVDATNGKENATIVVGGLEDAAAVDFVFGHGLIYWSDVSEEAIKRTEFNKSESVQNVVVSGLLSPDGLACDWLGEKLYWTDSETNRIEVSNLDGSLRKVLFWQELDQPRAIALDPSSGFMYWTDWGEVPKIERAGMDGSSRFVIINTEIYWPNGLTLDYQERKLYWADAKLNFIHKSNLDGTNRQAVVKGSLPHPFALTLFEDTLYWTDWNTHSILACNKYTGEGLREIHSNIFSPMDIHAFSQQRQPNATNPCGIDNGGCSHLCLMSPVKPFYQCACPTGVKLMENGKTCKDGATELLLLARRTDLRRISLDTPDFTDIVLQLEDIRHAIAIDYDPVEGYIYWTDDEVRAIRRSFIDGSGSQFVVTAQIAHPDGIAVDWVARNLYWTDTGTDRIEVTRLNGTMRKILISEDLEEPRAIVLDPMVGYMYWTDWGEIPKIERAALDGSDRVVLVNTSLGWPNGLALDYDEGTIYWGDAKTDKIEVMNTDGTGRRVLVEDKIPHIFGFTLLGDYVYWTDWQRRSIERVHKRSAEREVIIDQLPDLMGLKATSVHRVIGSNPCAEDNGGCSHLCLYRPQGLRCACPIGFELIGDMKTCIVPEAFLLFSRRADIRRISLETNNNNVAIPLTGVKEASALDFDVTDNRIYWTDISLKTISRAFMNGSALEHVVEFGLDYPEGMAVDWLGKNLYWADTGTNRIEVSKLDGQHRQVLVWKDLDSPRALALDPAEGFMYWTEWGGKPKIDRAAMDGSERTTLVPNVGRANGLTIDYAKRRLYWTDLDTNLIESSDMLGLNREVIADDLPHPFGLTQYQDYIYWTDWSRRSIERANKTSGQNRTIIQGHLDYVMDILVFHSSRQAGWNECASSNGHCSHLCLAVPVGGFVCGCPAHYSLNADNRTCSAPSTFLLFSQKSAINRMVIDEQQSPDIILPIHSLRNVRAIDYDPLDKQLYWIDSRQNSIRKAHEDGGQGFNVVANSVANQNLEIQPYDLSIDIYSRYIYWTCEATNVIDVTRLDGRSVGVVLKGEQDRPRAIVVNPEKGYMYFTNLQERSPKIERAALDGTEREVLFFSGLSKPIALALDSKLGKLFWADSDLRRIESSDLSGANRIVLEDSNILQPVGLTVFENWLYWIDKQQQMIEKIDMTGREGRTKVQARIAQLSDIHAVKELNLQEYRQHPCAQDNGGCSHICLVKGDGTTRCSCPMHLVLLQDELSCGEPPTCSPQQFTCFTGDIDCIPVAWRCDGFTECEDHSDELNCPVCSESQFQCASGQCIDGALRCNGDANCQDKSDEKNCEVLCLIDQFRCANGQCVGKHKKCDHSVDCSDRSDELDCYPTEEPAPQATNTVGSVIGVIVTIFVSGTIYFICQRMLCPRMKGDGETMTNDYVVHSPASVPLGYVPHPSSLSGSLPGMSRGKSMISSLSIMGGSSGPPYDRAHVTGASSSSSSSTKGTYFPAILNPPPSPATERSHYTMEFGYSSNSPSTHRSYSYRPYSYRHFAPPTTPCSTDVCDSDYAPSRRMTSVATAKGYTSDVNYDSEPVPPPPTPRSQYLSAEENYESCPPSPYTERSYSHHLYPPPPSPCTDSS

B1: BMPR-II in C2C12 cell lysate (receptor, mouse, UniProt O35607 27-1038, looked up)
chain: SQNQERLCAFKDPYQQDLGIGESRISHENGTILCSKGSTCYGLWEKSKGDINLVKQGCWSHIGDPQECHYEECVVTTTPPSIQNGTYRFCCCSTDLCNVNFTENFPPPDTTPLSPPHSFNRDETIIIALASVSVLAVLIVALCFGYRMLTGDRKQGLHSMNMMEAAAAEPSLDLDNLKLLELIGRGRYGAVYKGSLDERPVAVKVFSFANRQNFINEKNIYRVPLMEHDNIARFIVGDERLTADGRMEYLLVMEYYPNGSLCKYLSLHTSDWVSSCRLAHSVTRGLAYLHTELPRGDHYKPAISHRDLNSRNVLVKNDGACVISDFGLSMRLTGNRLVRPGEEDNAAISEVGTIRYMAPEVLEGAVNLRDCESALKQVDMYALGLIYWEVFMRCTDLFPGESVPDYQMAFQTEVGNHPTFEDMQVLVSREKQRPKFPEAWKENSLAVRSLKETIEDCWDQDAEARLTAQCAEERMAELMMIWERNKSVSPTVNPMSTAMQNERNLSHNRRVPKIGPYPDYSSSSYIEDSIHHTDSIVKNISSEHSMSSTPLTIGEKNRNSINYERQQAQARIPSPETSVTSLSTNTTTTNTTGLTPSTGMTTISEMPYPDETHLHATNVAQSIGPTPVCLQLTEEDLETNKLDPKEVDKNLKESSDENLMEHSLKQFSGPDPLSSTSSSLLYPLIKLAVEVTGQQDFTQAANGQACLIPDVPPAQIYPLPKQQNLPKRPTSLPLNTKNSTKEPRLKFGNKHKSNLKQVETGVAKMNTINAAEPHVVTVTMNGVAGRSHNVNSHAATTQYANGAVPAGQAANIVAHRSQEMLQNQFIGEDTRLNINSSPDEHEPLLRREQQAGHDEGVLDRLVDRRERPLEGGRTNSNNNNSNPCSEQDILTQGVTSTAADPGPSKPRRAQRPNSLDLSATNILDGSSIQIGESTQDGKSGSGEKIKRRVKTPYSLKRWRPSTWVISTEPLDCEVNNNGSDRAVHSKSSTAVYLAEGGTATTTVSKDIGMNCL
notes: also called BMP-2 receptor
With B1, the binding result in assay [1] and in assay [2] was “no binding” throughout.
